From patent US20140087995A1 (published 2014) come the findings set out here.

Numbered stars: 1 amine (or outer) side, 2 acyl side, 3 side chain; on linkers, the order of the positions; unused ones are H or OH. Bridge positions count the residues as written; N and C are the ends. Side chains are listed from the residue outwards. Ends that are not written are not given here. * marks the point of attachment. C20 diacid = O=C(O)CCCCCCCCCCCCCCCCCCC(=O)*; γGlu = O=C(O)[C@H](CCC(=O)[*:2])N[*:1]; AEEA = NCCOCCOCC(=O)O

Test [1] deals with T1, rat calcitonin receptor (rat, UniProt P32214 25-516).
T1 construct: whole, on cells; Used as membranes prepared from BHK tk'ts 13 cells transiently transfected with the rat calcitonin receptor (Assay VIII); also called rCTR; rat calcitonin (a) receptor
T1 sequence (looked up): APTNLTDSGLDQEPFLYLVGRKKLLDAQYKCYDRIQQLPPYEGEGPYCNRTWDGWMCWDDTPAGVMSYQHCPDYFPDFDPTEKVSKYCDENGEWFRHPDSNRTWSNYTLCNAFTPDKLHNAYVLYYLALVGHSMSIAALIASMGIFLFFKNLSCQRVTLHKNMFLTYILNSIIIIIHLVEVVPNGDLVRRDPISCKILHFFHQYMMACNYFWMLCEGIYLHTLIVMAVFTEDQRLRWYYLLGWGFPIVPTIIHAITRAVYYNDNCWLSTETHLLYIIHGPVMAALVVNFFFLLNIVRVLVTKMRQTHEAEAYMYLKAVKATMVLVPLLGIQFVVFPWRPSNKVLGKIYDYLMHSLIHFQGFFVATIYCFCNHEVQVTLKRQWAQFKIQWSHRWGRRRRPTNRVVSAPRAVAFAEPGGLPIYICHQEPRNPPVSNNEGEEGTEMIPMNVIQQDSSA
Kind of test: IC50 on rat CTR divided by IC50 on rat amylin receptor (Assays VIII/VI).

The target of test [2] is T2, rat amylin receptor (rat calcitonin receptor + rat RAMP 3) (rat, UniProt P32214 25-516; Q9JJ73 23-147).
T2 construct: whole, on cells; Used as membranes prepared from BHK tk'ts 13 cells transiently transfected with rat calcitonin receptor and rat RAMP 3 (Assay VI); also called rAmylin-R; rat amylin 3(a) receptor
T2 sequence (looked up) 1: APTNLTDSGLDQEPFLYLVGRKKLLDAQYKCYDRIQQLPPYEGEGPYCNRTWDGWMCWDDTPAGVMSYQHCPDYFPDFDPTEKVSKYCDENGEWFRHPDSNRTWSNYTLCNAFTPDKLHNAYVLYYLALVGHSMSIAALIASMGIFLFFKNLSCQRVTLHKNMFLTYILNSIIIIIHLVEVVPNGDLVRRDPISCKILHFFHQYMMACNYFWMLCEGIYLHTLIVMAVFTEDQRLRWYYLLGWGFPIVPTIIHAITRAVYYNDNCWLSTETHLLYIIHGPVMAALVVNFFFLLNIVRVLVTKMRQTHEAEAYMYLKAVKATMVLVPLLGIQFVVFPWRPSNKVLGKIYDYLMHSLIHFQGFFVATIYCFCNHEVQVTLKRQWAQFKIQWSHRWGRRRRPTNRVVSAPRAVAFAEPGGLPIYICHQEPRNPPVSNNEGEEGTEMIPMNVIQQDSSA
T2 sequence (looked up) 2: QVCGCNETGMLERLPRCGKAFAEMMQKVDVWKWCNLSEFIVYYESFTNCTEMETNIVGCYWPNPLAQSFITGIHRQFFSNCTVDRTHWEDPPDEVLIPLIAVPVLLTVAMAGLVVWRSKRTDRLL
Kind of test: SPA competition with 125I-rat amylin, membranes of BHK cells with rat CTR + rat RAMP3 (Assay VI).

Test [3] deals with T3, human calcitonin receptor (human, UniProt P30988 25-474).
T3 construct: whole, on cells; Used as membranes prepared from a BHK tk'ts 13 cell line stably transfected with the human calcitonin receptor (Assay VII); also called hCTR; hCT
T3 sequence (looked up): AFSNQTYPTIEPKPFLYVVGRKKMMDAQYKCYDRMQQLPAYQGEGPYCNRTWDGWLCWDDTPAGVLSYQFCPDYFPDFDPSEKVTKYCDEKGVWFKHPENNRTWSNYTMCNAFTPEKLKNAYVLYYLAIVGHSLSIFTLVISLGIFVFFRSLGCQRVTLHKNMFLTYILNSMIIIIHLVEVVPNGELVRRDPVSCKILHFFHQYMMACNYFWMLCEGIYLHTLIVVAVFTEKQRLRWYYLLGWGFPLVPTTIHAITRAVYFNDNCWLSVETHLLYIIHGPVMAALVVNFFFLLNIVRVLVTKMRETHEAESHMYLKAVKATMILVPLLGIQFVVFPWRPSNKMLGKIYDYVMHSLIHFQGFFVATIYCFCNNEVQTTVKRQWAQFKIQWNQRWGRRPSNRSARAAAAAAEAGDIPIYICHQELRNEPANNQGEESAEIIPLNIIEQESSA
In words: IC50 on human CTR divided by IC50 on human amylin receptor (Assays VII/V). Summed up: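 IC₅₀ values were derived by one-site competition analysis of SPA counts. Cell membranes (35 ng/μL) with SPA beads were incubated with test compounds for 120 min at 25° C in Hepes buffer, pH 7.4, containing CaCl2, MgCl₂, OA and Tween20.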

Test [4] addresses T1, rat calcitonin receptor. Kind of test: SPA competition with 125I-calcitonin, membranes of BHK cells with rat CTR (Assay VIII).

B1: N^ε1-[2-[2-[2-[[(4S)-4-carboxy-4-(19-carboxynonadecanoylamino)butanoyl]amino]ethoxy]ethoxy]acetyl]-[Arg17,Pro21,Pro27,Pro34,His35]-h-amylin (peptide)
peptide: K([AEEA-γGlu-C20 diacid])CNTATCATQRLANFLRHSSPNFGAIPSSTNVGPHTY-NH2
modifications: disulfide 2-7; N-terminus assumed
SMILES: CC[C@H](C)[C@H](NC(=O)[C@H](C)NC(=O)CNC(=O)[C@H](Cc1ccccc1)NC(=O)[C@H](CC(N)=O)NC(=O)[C@@H]1CCCN1C(=O)[C@H](CO)NC(=O)[C@H](CO)NC(=O)[C@H](Cc1c[nH]cn1)NC(=O)[C@H](CCCNC(=N)N)NC(=O)[C@H](CC(C)C)NC(=O)[C@H](Cc1ccccc1)NC(=O)[C@H](CC(N)=O)NC(=O)[C@H](C)NC(=O)[C@H](CC(C)C)NC(=O)[C@H](CCCNC(=N)N)NC(=O)[C@H](CCC(N)=O)NC(=O)[C@@H](NC(=O)[C@H](C)NC(=O)[C@@H]1CSSC[C@H](NC(=O)[C@@H](N)CCCCNC(=O)COCCOCCNC(=O)CC[C@H](NC(=O)CCCCCCCCCCCCCCCCCCC(=O)O)C(=O)O)C(=O)N[C@@H](CC(N)=O)C(=O)N[C@@H]([C@@H](C)O)C(=O)N[C@@H](C)C(=O)N[C@@H]([C@@H](C)O)C(=O)N1)[C@@H](C)O)C(=O)N1CCC[C@H]1C(=O)N[C@@H](CO)C(=O)N[C@@H](CO)C(=O)N[C@H](C(=O)N[C@@H](CC(N)=O)C(=O)N[C@H](C(=O)NCC(=O)N1CCC[C@H]1C(=O)N[C@@H](Cc1c[nH]cn1)C(=O)N[C@H](C(=O)N[C@@H](Cc1ccc(O)cc1)C(N)=O)[C@@H](C)O)C(C)C)[C@@H](C)O
notes: Analogue of human amylin; also called compound 58
One may read the IC50 as the concentration that gives 50% inhibition. In the case of B1, in the test with rat calcitonin receptor [1], the “Ratio rCT/rAmylin binding” value came to 76.6. The IC50 is 0.135 nM in test [2] and 10.3 nM in the test with rat calcitonin receptor [4]. Moreover, the “Ratio hCT/hAmylin binding” value in test [3] is 109.

B2: N^ε1-[2-[2-[2-[[(4S)-4-carboxy-4-(19-carboxynonadecanoylamino)butanoyl]amino]ethoxy]ethoxy]acetyl]-[His14,Arg17,Pro21,Pro27,His34]-h-amylin (peptide)
peptide: K([AEEA-γGlu-C20 diacid])CNTATCATQRLAHFLRHSSPNFGAIPSSTNVGHNTY-NH2
modifications: disulfide 2-7; N-terminus assumed
SMILES: CC[C@H](C)[C@H](NC(=O)[C@H](C)NC(=O)CNC(=O)[C@H](Cc1ccccc1)NC(=O)[C@H](CC(N)=O)NC(=O)[C@@H]1CCCN1C(=O)[C@H](CO)NC(=O)[C@H](CO)NC(=O)[C@H](Cc1c[nH]cn1)NC(=O)[C@H](CCCNC(=N)N)NC(=O)[C@H](CC(C)C)NC(=O)[C@H](Cc1ccccc1)NC(=O)[C@H](Cc1c[nH]cn1)NC(=O)[C@H](C)NC(=O)[C@H](CC(C)C)NC(=O)[C@H](CCCNC(=N)N)NC(=O)[C@H](CCC(N)=O)NC(=O)[C@@H](NC(=O)[C@H](C)NC(=O)[C@@H]1CSSC[C@H](NC(=O)[C@@H](N)CCCCNC(=O)COCCOCCNC(=O)CC[C@H](NC(=O)CCCCCCCCCCCCCCCCCCC(=O)O)C(=O)O)C(=O)N[C@@H](CC(N)=O)C(=O)N[C@@H]([C@@H](C)O)C(=O)N[C@@H](C)C(=O)N[C@@H]([C@@H](C)O)C(=O)N1)[C@@H](C)O)C(=O)N1CCC[C@H]1C(=O)N[C@@H](CO)C(=O)N[C@@H](CO)C(=O)N[C@H](C(=O)N[C@@H](CC(N)=O)C(=O)N[C@H](C(=O)NCC(=O)N[C@@H](Cc1c[nH]cn1)C(=O)N[C@@H](CC(N)=O)C(=O)N[C@H](C(=O)N[C@@H](Cc1ccc(O)cc1)C(N)=O)[C@@H](C)O)C(C)C)[C@@H](C)O
notes: Analogue of human amylin; also called compound 80
Consider B2, for which the “Ratio rCT/rAmylin binding” value with rat calcitonin receptor [1] came to 36.2. In addition, the IC50 turned out to be 1.67 nM in test [2] and 60.4 nM in the test with rat calcitonin receptor [4]. In addition, in test [3], the “Ratio hCT/hAmylin binding” value was determined as 68.1.

B3: N^ε1-[2-[2-[2-[[(4S)-4-carboxy-4-(19-carboxynonadecanoylamino)butanoyl]amino]ethoxy]ethoxy]acetyl]-[Gly14,Arg17,Pro21,Pro27,Pro31]-h-amylin (peptide)
peptide: K([AEEA-γGlu-C20 diacid])CNTATCATQRLAGFLRHSSPNFGAIPSSTPVGSNTY-NH2
modifications: disulfide 2-7; N-terminus assumed
SMILES: CC[C@H](C)[C@H](NC(=O)[C@H](C)NC(=O)CNC(=O)[C@H](Cc1ccccc1)NC(=O)[C@H](CC(N)=O)NC(=O)[C@@H]1CCCN1C(=O)[C@H](CO)NC(=O)[C@H](CO)NC(=O)[C@H](Cc1c[nH]cn1)NC(=O)[C@H](CCCNC(=N)N)NC(=O)[C@H](CC(C)C)NC(=O)[C@H](Cc1ccccc1)NC(=O)CNC(=O)[C@H](C)NC(=O)[C@H](CC(C)C)NC(=O)[C@H](CCCNC(=N)N)NC(=O)[C@H](CCC(N)=O)NC(=O)[C@@H](NC(=O)[C@H](C)NC(=O)[C@@H]1CSSC[C@H](NC(=O)[C@@H](N)CCCCNC(=O)COCCOCCNC(=O)CC[C@H](NC(=O)CCCCCCCCCCCCCCCCCCC(=O)O)C(=O)O)C(=O)N[C@@H](CC(N)=O)C(=O)N[C@@H]([C@@H](C)O)C(=O)N[C@@H](C)C(=O)N[C@@H]([C@@H](C)O)C(=O)N1)[C@@H](C)O)C(=O)N1CCC[C@H]1C(=O)N[C@@H](CO)C(=O)N[C@@H](CO)C(=O)N[C@H](C(=O)N1CCC[C@H]1C(=O)N[C@H](C(=O)NCC(=O)N[C@@H](CO)C(=O)N[C@@H](CC(N)=O)C(=O)N[C@H](C(=O)N[C@@H](Cc1ccc(O)cc1)C(N)=O)[C@@H](C)O)C(C)C)[C@@H](C)O
notes: Analogue of human amylin; also called compound 71
Regarding B3, the “Ratio rCT/rAmylin binding” value with rat calcitonin receptor [1] came to 162. Also, the IC50 in test [2] was 0.276 nM; in the test with rat calcitonin receptor [4], 44.8 nM. Also, the “Ratio hCT/hAmylin binding” value in test [3] is 32.

B4: N^ε1-[2-[2-[2-[[(4S)-4-carboxy-4-(19-carboxynonadecanoylamino)butanoyl]amino]ethoxy]ethoxy]acetyl]-[Arg17,Pro21,Pro27,Pro34]-h-amylin (peptide)
peptide: K([AEEA-γGlu-C20 diacid])CNTATCATQRLANFLRHSSPNFGAIPSSTNVGPNTY-NH2
modifications: disulfide 2-7; N-terminus assumed
SMILES: CC[C@H](C)[C@H](NC(=O)[C@H](C)NC(=O)CNC(=O)[C@H](Cc1ccccc1)NC(=O)[C@H](CC(N)=O)NC(=O)[C@@H]1CCCN1C(=O)[C@H](CO)NC(=O)[C@H](CO)NC(=O)[C@H](Cc1c[nH]cn1)NC(=O)[C@H](CCCNC(=N)N)NC(=O)[C@H](CC(C)C)NC(=O)[C@H](Cc1ccccc1)NC(=O)[C@H](CC(N)=O)NC(=O)[C@H](C)NC(=O)[C@H](CC(C)C)NC(=O)[C@H](CCCNC(=N)N)NC(=O)[C@H](CCC(N)=O)NC(=O)[C@@H](NC(=O)[C@H](C)NC(=O)[C@@H]1CSSC[C@H](NC(=O)[C@@H](N)CCCCNC(=O)COCCOCCNC(=O)CC[C@H](NC(=O)CCCCCCCCCCCCCCCCCCC(=O)O)C(=O)O)C(=O)N[C@@H](CC(N)=O)C(=O)N[C@@H]([C@@H](C)O)C(=O)N[C@@H](C)C(=O)N[C@@H]([C@@H](C)O)C(=O)N1)[C@@H](C)O)C(=O)N1CCC[C@H]1C(=O)N[C@@H](CO)C(=O)N[C@@H](CO)C(=O)N[C@H](C(=O)N[C@@H](CC(N)=O)C(=O)N[C@H](C(=O)NCC(=O)N1CCC[C@H]1C(=O)N[C@@H](CC(N)=O)C(=O)N[C@H](C(=O)N[C@@H](Cc1ccc(O)cc1)C(N)=O)[C@@H](C)O)C(C)C)[C@@H](C)O
notes: Analogue of human amylin; also called compound 50
Take B4: the “Ratio rCT/rAmylin binding” value with rat calcitonin receptor [1] is 81.7. In addition, the IC50 was determined as 0.069 nM in test [2] and 5.63 nM with rat calcitonin receptor [4]. Besides, the “Ratio hCT/hAmylin binding” value in test [3] was 36.
